According to patent publication CN109776677A (SHANGHAI PHARMEXPLORER COMPANY LTD, dated 2019):

Tests used:
[1] = target: 免疫原A (his标签重组人IL-13蛋白) (human) (UniProt P35225); assay: SPR (Biacore), steps as Example 9
[2] = target: 免疫原A (his标签重组人IL-13蛋白) (human) (UniProt P35225); assay: SPR (Biacore), sentence on the group of 表27
[3] = target: 免疫原A (his标签重组人IL-13蛋白) (human) (UniProt P35225); assay: SPR (Biacore), antibody captured on anti-human Fc CM5 chip, immunogen A as analyte, 1:1 global fit
[4] = target: T1, 鼠IL-13 (小鼠 (mouse), UniProt P20109 19-131, limits assumed); assay: ELISA, IL-13 at 0.5 μg/mL on streptavidin plate, serially diluted antibody, HRP second antibody
T1 construct: Bought protein; also called 小鼠IL-13; 鼠IL-13变体
T1 sequence (looked up): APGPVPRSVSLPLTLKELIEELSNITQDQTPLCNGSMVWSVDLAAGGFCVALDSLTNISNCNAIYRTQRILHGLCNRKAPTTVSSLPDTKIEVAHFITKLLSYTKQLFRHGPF

| Binder | Kd [1] [nM] | koff [1] [s⁻¹] | kon [1] [M⁻¹ s⁻¹] | Kd [2] [nM] | Kd [3] [nM] | koff [3] [s⁻¹] | kon [3] [M⁻¹ s⁻¹] | binding result [4] |
| --- | --- | --- | --- | --- | --- | --- | --- | --- |
| 35E2C3 (antibody, V domains shown, also called 先导抗体; IL-13先导抗体) VH: EVQLQESGPGLAKPSQTLSLTCSVTGYSITSDYWNWIRKFPGNKLEYMGYISYNGNTYYNPSLKSQISITRDTSKNQLYLQLKSATTEDTATYYCARLAKWTWYFDIWGTGTTVTVSS VL: DIQMNQSPSSLSASLGDTITITCHASQNINVWLSWYQQKPGSLPKLLIYKASDLHTGVPSRFSGSGSGTGFTLTISSLQPEDIATYYCQQGQSYPYTFGGGTKLEIK | 0.86 | 0.000248 | 289000 | < 90 | 0.863 | 0.00026 | 300000 | no binding |
| c29D9H8 (antibody, V domains shown) VH: QVQLQQSGAELVRPGASVTLSCKASGYTFTDYEMHWVKQTPVHGLEWIGGIDPETGGTASNQKFKGKAILTADKSSSTAYMELRSLTSEDSAVYYCTSGDYFGGGPFAYWGQGTLVTVSA VL: DIKMTQSPSSMYASLGERVTITCKASQDINSYLSWFQQKPGKSPKTLIYRANRLVDGVPSRFSGSGSGQDYSLTISSLDYEDMGIYYCLQYDEFPYTFGGGTKLEIK | 0.0247 | 0.000962 | 3.9e+07 | < 90 | 0.0324 | 0.000813 | 2.51e+07 | – |
